According to patent US20250018014A1, “METHOD FOR TREATING AND/OR PREVENTING REGNASE-1-RELATED DISEASE” (OSAKA UNIVERSITY, priority 2018, published 2025):
Positions of bridges follow the written chain, without caps; N, C: chain ends. Non-standard residues stand in square brackets, D forms with d. *: point of attachment. Pyrrolidide = C1CCN(*)C1; dNMeA = CN[C@H](C)C(=O)O

T1: full-length human Regnase-1 with a FLAG tag on the N-terminal side and a biotin ligase BirA recognition … (human, UniProt Q5D1E8 1-599, biotinylated at the BirA recognition sequence when required)
T1 sequence: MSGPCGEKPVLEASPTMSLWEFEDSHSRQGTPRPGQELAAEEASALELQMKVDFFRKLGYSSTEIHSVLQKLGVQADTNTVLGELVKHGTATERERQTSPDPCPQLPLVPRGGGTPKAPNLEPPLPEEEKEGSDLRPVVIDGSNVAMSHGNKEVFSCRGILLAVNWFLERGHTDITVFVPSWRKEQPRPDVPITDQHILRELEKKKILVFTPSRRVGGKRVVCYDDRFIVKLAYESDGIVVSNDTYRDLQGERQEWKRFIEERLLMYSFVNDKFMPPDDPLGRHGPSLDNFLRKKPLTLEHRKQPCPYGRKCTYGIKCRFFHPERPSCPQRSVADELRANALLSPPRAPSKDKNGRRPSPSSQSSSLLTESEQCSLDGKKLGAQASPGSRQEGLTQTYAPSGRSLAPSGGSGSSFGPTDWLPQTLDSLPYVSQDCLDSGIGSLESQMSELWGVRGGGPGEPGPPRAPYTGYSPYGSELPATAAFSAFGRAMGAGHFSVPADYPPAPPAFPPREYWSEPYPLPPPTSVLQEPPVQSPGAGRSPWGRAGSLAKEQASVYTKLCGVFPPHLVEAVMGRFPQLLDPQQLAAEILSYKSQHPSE

T2: C-terminal domain-deleted human Regnase-1 (amino acids 1 to 546) with N-terminal FLAG tag and C-terminal BirA … (human, UniProt Q5D1E8 1-546)
T2 sequence: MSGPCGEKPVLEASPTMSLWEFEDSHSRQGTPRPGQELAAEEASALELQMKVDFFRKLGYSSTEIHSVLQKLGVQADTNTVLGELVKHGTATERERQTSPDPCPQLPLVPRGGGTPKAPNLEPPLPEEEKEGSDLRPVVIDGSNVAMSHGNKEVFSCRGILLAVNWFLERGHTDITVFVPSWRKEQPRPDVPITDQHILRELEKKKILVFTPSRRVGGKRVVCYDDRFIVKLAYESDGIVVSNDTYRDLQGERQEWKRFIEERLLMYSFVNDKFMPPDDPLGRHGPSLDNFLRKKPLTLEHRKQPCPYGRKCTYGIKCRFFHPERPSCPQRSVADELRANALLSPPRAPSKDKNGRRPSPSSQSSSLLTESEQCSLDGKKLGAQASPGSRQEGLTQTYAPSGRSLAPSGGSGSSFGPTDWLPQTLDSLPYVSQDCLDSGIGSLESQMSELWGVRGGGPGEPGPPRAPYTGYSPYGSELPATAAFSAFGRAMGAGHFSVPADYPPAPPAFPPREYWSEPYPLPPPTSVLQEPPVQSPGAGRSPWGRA

T3: C-terminal human Regnase-1 (amino acids 301 to 599) with N-terminal FLAG tag and C-terminal BirA recognition … (human, UniProt Q5D1E8 301-599)
T3 sequence: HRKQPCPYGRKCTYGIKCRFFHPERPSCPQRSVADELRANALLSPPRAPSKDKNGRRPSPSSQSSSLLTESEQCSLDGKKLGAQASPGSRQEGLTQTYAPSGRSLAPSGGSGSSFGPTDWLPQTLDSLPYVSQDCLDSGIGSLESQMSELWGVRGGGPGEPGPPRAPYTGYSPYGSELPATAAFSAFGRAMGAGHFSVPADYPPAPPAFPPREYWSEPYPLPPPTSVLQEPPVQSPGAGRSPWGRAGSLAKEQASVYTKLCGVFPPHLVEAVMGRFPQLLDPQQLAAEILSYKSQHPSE

B1: PP24 (peptide)
peptide: XWIWDFWNED
HELM: PEPTIDE1{[meA].W.I.W.D.F.W.N.E.D.[C1CCN([*:1])C1]}$PEPTIDE1,PEPTIDE1,1:R1-10:R3$$$V2.0
SMILES: CC[C@H](C)[C@@H]1NC(=O)[C@H](Cc2c[nH]c3ccccc23)NC(=O)[C@H](C)N(C)C(=O)C[C@@H](C(=O)N2CCCC2)NC(=O)[C@H](CCC(=O)O)NC(=O)[C@H](CC(N)=O)NC(=O)[C@H](Cc2c[nH]c3ccccc23)NC(=O)[C@H](Cc2ccccc2)NC(=O)[C@H](CC(=O)O)NC(=O)[C@H](Cc2c[nH]c3ccccc23)NC1=O
B2: PP21 (peptide)
peptide: XNSWYKIWGLD
HELM: PEPTIDE1{[meA].N.S.W.Y.K.I.W.G.L.D.[C1CCN([*:1])C1]}$PEPTIDE1,PEPTIDE1,1:R1-11:R3$$$V2.0
SMILES: CC[C@H](C)[C@@H]1NC(=O)[C@H](CCCCN)NC(=O)[C@H](Cc2ccc(O)cc2)NC(=O)[C@H](Cc2c[nH]c3ccccc23)NC(=O)[C@H](CO)NC(=O)[C@H](CC(N)=O)NC(=O)[C@H](C)N(C)C(=O)C[C@@H](C(=O)N2CCCC2)NC(=O)[C@H](CC(C)C)NC(=O)CNC(=O)[C@H](Cc2c[nH]c3ccccc23)NC1=O
B3: PP22 (peptide)
peptide: XNSWYRIWGLD
HELM: PEPTIDE1{[meA].N.S.W.Y.R.I.W.G.L.D.[C1CCN([*:1])C1]}$PEPTIDE1,PEPTIDE1,1:R1-11:R3$$$V2.0
SMILES: CC[C@H](C)[C@@H]1NC(=O)[C@H](CCCNC(=N)N)NC(=O)[C@H](Cc2ccc(O)cc2)NC(=O)[C@H](Cc2c[nH]c3ccccc23)NC(=O)[C@H](CO)NC(=O)[C@H](CC(N)=O)NC(=O)[C@H](C)N(C)C(=O)C[C@@H](C(=O)N2CCCC2)NC(=O)[C@H](CC(C)C)NC(=O)CNC(=O)[C@H](Cc2c[nH]c3ccccc23)NC1=O

The binders below were run against T1, full-length human Regnase-1 with a FLAG … (assay: cell-based or functional assay).

Binder | 50% inhibition concentration, Regnase-1 phosphorylation by TBK1 (AlphaScreen) [µM]
B1 | 35.7
B2 | 13.5
B3 | 24.3
[dNMeA]PTSSWYKIWD-Pyrrolidide (lactam N-11) [PP23] | 18.8
[dNMeA]EDTPEDDHD-Pyrrolidide (lactam N-10) [PP25] | 18.9

The binders below were run against T2, C-terminal domain-deleted human … (assay: cell-based or functional assay).

Binder | 50% inhibition concentration, Regnase-1 phosphorylation by TBK1 (AlphaScreen) [µM]
B1 | 27.3
B2 | 11.7
B3 | 22.8
[dNMeA]PTSSWYKIWD-Pyrrolidide (lactam N-11) [PP23] | 29.7
[dNMeA]EDTPEDDHD-Pyrrolidide (lactam N-10) [PP25] | 16.1

What follows are binders tested against T3, C-terminal human Regnase-1 (amino acids …) (assay: cell-based or functional assay).

Binder | 50% inhibition concentration, Regnase-1 phosphorylation by TBK1 (AlphaScreen) [µM]
B1 | 34.8
B2 | 17
B3 | 25.8
[dNMeA]PTSSWYKIWD-Pyrrolidide (lactam N-11) [PP23] | 30.7
[dNMeA]EDTPEDDHD-Pyrrolidide (lactam N-10) [PP25] | 16.3

Biological target: T1, full-length human Regnase-1 with a FLAG …
Assay: cell-based or functional assay
Remark: another data set of the same source

Binder | 50% inhibition concentration, Regnase-1 phosphorylation by IKKβ (AlphaScreen) [µM]
B1 | 5.3
B2 | 19.6
B3 | 15
[dNMeA]PTSSWYKIWD-Pyrrolidide (lactam N-11) [PP23] | 25.6
[dNMeA]EDTPEDDHD-Pyrrolidide (lactam N-10) [PP25] | 27

Biological target: T2, C-terminal domain-deleted human …
Assay: cell-based or functional assay
Remark: another data set of the same source

Binder | 50% inhibition concentration, Regnase-1 phosphorylation by IKKβ (AlphaScreen) [µM]
B1 | 4
B2 | 39.3
B3 | 34
[dNMeA]PTSSWYKIWD-Pyrrolidide (lactam N-11) [PP23] | > 62.1
[dNMeA]EDTPEDDHD-Pyrrolidide (lactam N-10) [PP25] | 47.7

Biological target: T3, C-terminal human Regnase-1 (amino acids …)
Assay: cell-based or functional assay
Remark: another data set of the same source

Binder | 50% inhibition concentration, Regnase-1 phosphorylation by IKKβ (AlphaScreen) [µM]
B1 | 7.2
B2 | 37.2
B3 | 31
[dNMeA]PTSSWYKIWD-Pyrrolidide (lactam N-11) [PP23] | > 62.1
[dNMeA]EDTPEDDHD-Pyrrolidide (lactam N-10) [PP25] | 27.6
